Results on 83 variants are retold here after the RNAGym collection of RNA variant scans (doi:10.1073/pnas.2313332121).

B1: TPR t1 (parent)
chain: GACCAAUCUGCCCUCAGAGCUCGAGAACAUCUUCGGAUGCAGAGGAGGCAGGCUUCGGUGGCGCGAUAGCGCCAACGUCCUCAACCUCCAAUGCAUCCCACCACAUGAUGAUGCCUGAAGAGCCUUGGUUUUUUG

In the data set the parent is B1. The experiment in a line: polymerase ribozyme fitness, log enrichment relative to wild type (log ratio); higher = more active; in vitro selection for triplet polymerase activity. Summed up: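 Streptavidin-bead capture of gel-excised extended constructs, followed by RT-PCR, closed a single triplicate in vitro selection round. That round began by annealing PCR-built, transcribed mutant libraries of each subunit of a heterodimeric triplet polymerase ribozyme with a biotinylated primer, the partner subunit and triplets, then incubating them frozen at −7 °C. After Illumina sequencing of inputs and outputs, genotypes needed ≥10 input reads and ≥1 read per output. Fitness is the base-2 logarithm of genotype enrichment over wild-type enrichment, using inverse-variance-weighted replicate averages.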
C53A C98A C102G U112C: the “polymerase ribozyme fitness (log ratio)” value is -7.27.

For U55C G58A G60U U78A G110A, the “polymerase ribozyme fitness (log ratio)” value was -1.19.

As for U54G C56U A121G C124A, the “polymerase ribozyme fitness (log ratio)” value was -4.56.

With C53U C114A, the “polymerase ribozyme fitness (log ratio)” value was -1.2.

For the variant C56A C99A, the “polymerase ribozyme fitness (log ratio)” value is -6.08.

For the variant C53G C104U C114U G120U C123G C124A, the “polymerase ribozyme fitness (log ratio)” value was -0.873.

Take C56A C114U C115U U131C: the “polymerase ribozyme fitness (log ratio)” value is -5.83.

Take C53U C72G G113C U129A: the “polymerase ribozyme fitness (log ratio)” value was -4.76.

On to U54A G113A, for which the “polymerase ribozyme fitness (log ratio)” value is -1.58.

In the case of C53U C124A G128C, the “polymerase ribozyme fitness (log ratio)” value was -0.772.

U54G C85G U133A: the “polymerase ribozyme fitness (log ratio)” value was -1.09.

Take C53G G60A C104A U125A U131A: the “polymerase ribozyme fitness (log ratio)” value was -3.15.

As to C53U C89A C115U A119G, the “polymerase ribozyme fitness (log ratio)” value was determined as 0.658.

Take C56A C72G A90G: the “polymerase ribozyme fitness (log ratio)” value is -1.05.

Take C53G G57U: the “polymerase ribozyme fitness (log ratio)” value came to 0.0545.

For C53A U78C C104A, the “polymerase ribozyme fitness (log ratio)” value was -1.25.

For the variant C53U G69A, the “polymerase ribozyme fitness (log ratio)” value was -2.64.

With U54G A95U, the “polymerase ribozyme fitness (log ratio)” value is -0.988.

On to C53U C79G U81C, for which the “polymerase ribozyme fitness (log ratio)” value is -1.9.

Regarding C56A C86U, the “polymerase ribozyme fitness (log ratio)” value is -0.995.

With C53U C62U A111U A118U, the “polymerase ribozyme fitness (log ratio)” value is -3.63.

U55G C73G: the “polymerase ribozyme fitness (log ratio)” value worked out at 1.

In the case of U55C G71A A90G G113U, the “polymerase ribozyme fitness (log ratio)” value is -2.42.

C53U U59A C89A U130G: the “polymerase ribozyme fitness (log ratio)” value was -3.42.

Take C53G C70A G117A: the “polymerase ribozyme fitness (log ratio)” value is -3.42.

As to C53G G122A, the “polymerase ribozyme fitness (log ratio)” value was -1.37.

As to C56A A100C, the “polymerase ribozyme fitness (log ratio)” value was -1.19.

As to U55G U130G, the “polymerase ribozyme fitness (log ratio)” value is -0.58.

Regarding C53U C72A A90U C101A, the “polymerase ribozyme fitness (log ratio)” value is -2.92.

Take C53U G60C G120A: the “polymerase ribozyme fitness (log ratio)” value amounted to 0.0788.

As to U55C G71C C104U, the “polymerase ribozyme fitness (log ratio)” value was -0.984.

For the variant C53G U81A U131G, the “polymerase ribozyme fitness (log ratio)” value was -0.825.

Consider C53G G61C A66C, for which the “polymerase ribozyme fitness (log ratio)” value is -2.24.

U54A C64U C72U C86A: the “polymerase ribozyme fitness (log ratio)” value is -0.948.

As to U55G A121C, the “polymerase ribozyme fitness (log ratio)” value came out at 0.81.

Consider C53U U109G, for which the “polymerase ribozyme fitness (log ratio)” value was -4.32.

In the case of C53A U87A A90G C97G U112A, the “polymerase ribozyme fitness (log ratio)” value is -3.25.

On to C53G C72G C88A, for which the “polymerase ribozyme fitness (log ratio)” value is -0.997.

For U55C C72G C79U, the “polymerase ribozyme fitness (log ratio)” value stood at 0.018.

For C53G C72U C104A, the “polymerase ribozyme fitness (log ratio)” value was -1.89.

For C56A U59G A83G, the “polymerase ribozyme fitness (log ratio)” value was -1.48.

Consider U55C G61U A90G U112C A119U, for which the “polymerase ribozyme fitness (log ratio)” value is 0.196.

On to C56A G120U, for which the “polymerase ribozyme fitness (log ratio)” value was -0.119.

As for U55A C101G, the “polymerase ribozyme fitness (log ratio)” value is -1.85.

Consider U54G C79A, for which the “polymerase ribozyme fitness (log ratio)” value is -2.11.

For C53G G69U, the “polymerase ribozyme fitness (log ratio)” value is -0.127.

As for U54C C56A C85G G117A, the “polymerase ribozyme fitness (log ratio)” value was -4.42.

As for C56A G71A C86A C104A, the “polymerase ribozyme fitness (log ratio)” value is -6.75.

On to C53G C101A, for which the “polymerase ribozyme fitness (log ratio)” value was -1.03.

For the variant C53G A119U C123A, the “polymerase ribozyme fitness (log ratio)” value was -1.16.

Regarding U54A U92G, the “polymerase ribozyme fitness (log ratio)” value was -2.06.

Regarding C53U C70U, the “polymerase ribozyme fitness (log ratio)” value was -0.962.

Take C53G A74G C115U: the “polymerase ribozyme fitness (log ratio)” value is -1.15.

With U54G C86A U129G, the “polymerase ribozyme fitness (log ratio)” value is -0.985.

Turning to U55G C88G, the “polymerase ribozyme fitness (log ratio)” value was -0.483.

Turning to U55G A74U U81A C85G G122A, the “polymerase ribozyme fitness (log ratio)” value was -4.4.

As for U54G C102U, the “polymerase ribozyme fitness (log ratio)” value was -1.84.

In the case of C53G G63A, the “polymerase ribozyme fitness (log ratio)” value is -2.58.

For the variant C53A G60A U92G, the “polymerase ribozyme fitness (log ratio)” value is -2.9.

Consider C53A U54A C80A C114A C124G U125A, for which the “polymerase ribozyme fitness (log ratio)” value is -6.7.

C53G G57A A66G C70A G113U: the “polymerase ribozyme fitness (log ratio)” value was -7.08.

Turning to C56A C73A C94U G113A, the “polymerase ribozyme fitness (log ratio)” value was -2.48.

Turning to U55G C73G C123U, the “polymerase ribozyme fitness (log ratio)” value stood at 0.666.

As to C53A G63A C124U U129C U134G, the “polymerase ribozyme fitness (log ratio)” value turned out to be 1.57.

As to C56A C115A, the “polymerase ribozyme fitness (log ratio)” value is -0.059.

As for C56A C80A, the “polymerase ribozyme fitness (log ratio)” value is -2.22.

For C53U G71C C82G, the “polymerase ribozyme fitness (log ratio)” value was -0.812.

Consider U55A C73A, for which the “polymerase ribozyme fitness (log ratio)” value was found to be 0.5.

As to C53A U81G A90G, the “polymerase ribozyme fitness (log ratio)” value stood at 0.427.

On to U54G C62A U78C C123U U126A, for which the “polymerase ribozyme fitness (log ratio)” value is -6.39.

For C53A C72U C98U C123U, the “polymerase ribozyme fitness (log ratio)” value is -3.81.

Turning to C53U C72G C88U A105G, the “polymerase ribozyme fitness (log ratio)” value is -2.32.

C56A C101U G110A: the “polymerase ribozyme fitness (log ratio)” value is -1.05.

Regarding C53G G77A C102U G120C U125A, the “polymerase ribozyme fitness (log ratio)” value is -2.26.

For the variant C53G G110U, the “polymerase ribozyme fitness (log ratio)” value is -1.58.

Take C53U C64A C72U A95C A105C G122U C123G: the “polymerase ribozyme fitness (log ratio)” value was -6.4.

Take C53U G63A C80A A105C G113U: the “polymerase ribozyme fitness (log ratio)” value is -6.53.

For the variant C56A C79G G93A, the “polymerase ribozyme fitness (log ratio)” value was -2.59.

As for C53U G60A C73A U106G C123G U126A, the “polymerase ribozyme fitness (log ratio)” value was -2.6.

As for C56A G71A A100U, the “polymerase ribozyme fitness (log ratio)” value was -5.55.

As for U54C G69U G127C, the “polymerase ribozyme fitness (log ratio)” value is -0.892.

For C53U G58U, the “polymerase ribozyme fitness (log ratio)” value was -0.0375.

U54A A66G C70G C124U U129G: the “polymerase ribozyme fitness (log ratio)” value is -6.53.
